# Source: paper PMC2843198 (The Journal of Biological Chemistry, 2010)
# B1: TAP-tagged Fun30 (Function unknown now 30) (enzyme, S. cerevisiae, UniProt P31380 1-1131, looked up)
# chain: MSGSHSNDEDDVVQVPETSSPTKVASSSPLKPTSPTVPDASVASLRSRFTFKPSDPSEGAHTSKPLPSGSPEVALVNLAREFPDFSQTLVQAVFKSNSFNLQSARERLTRLRQQRQNWTWNKNASPKKSETPPPVKKSLPLANTGRLSSIHGNINNKSSKITVAKQKTSIFDRYSNVINQKQYTFELPTNLNIDSEALSKLPVNYNKKRRLVRADQHPIGKSYESSATQLGSAREKLLANRKYGRHANDNDEEEEESMMTDDDDASGDDYTESTPQINLDEQVLQFINDSDIVDLSDLSDTTMHKAQLIASHRPYSSLNAFVNTNFNDKDTEENASNKRKRRAAASANESERLLDKITQSIRGYNAIESVIKKCSSYGDLVTSQMKKWGVQVEGDNSELDLMNLGEDDDDDNDDGNNDNNNSNNNNTAGADATSKEKEDTKAVVEGFDETSAEPTPAPAPAPVERETKRIRNTTKPKVVEDEDDDVDLEAIDDELPQSEHEDDDYEEEDEDYNDEEEDVEYDDGDDDDDDDDEFVATRKNTHVISTTSRNGRKPIVKFFKGKPRLLSPEISLKDYQQTGINWLNLLYQNKMSCILADDMGLGKTCQVISFFAYLKQINEPGPHLVVVPSSTLENWLREFQKFAPALKIEPYYGSLQEREELRDILERNAGKYDVIVTTYNLAAGNKYDVSFLKNRNFNVVVYDEGHMLKNSTSERFAKLMKIRANFRLLLTGTPLQNNLKELMSLLEFIMPNLFISKKESFDAIFKQRAKTTDDNKNHNPLLAQEAITRAKTMMKPFILRRRKDQVLKHLPPKHTHIQYCELNAIQKKIYDKEIQIVLEHKRMIKDGELPKDAKEKSKLQSSSSKNLIMALRKASLHPLLFRNIYNDKIITKMSDAILDEPAYAENGNKEYIKEDMSYMTDFELHKLCCNFPNTLSKYQLHNDEWMQSGKIDALKKLLKTIIVDKQEKVLIFSLFTQVLDILEMVLSTLDYKFLRLDGSTQVNDRQLLIDKFYEDKDIPIFILSTKAGGFGINLVCANNVIIFDQSFNPHDDRQAADRAHRVGQTKEVNITTLITKDSIEEKIHQLAKNKLALDSYISEDKKSQDVLESKVSDMLEDIIYDENSKPKGTKE
# Target: the molecule itself
# Assay: SEC
protein,measurement,value
B1,stoichiometry N,2
